The assay has as its target Schistosoma japonicum glutathione S-transferase (GST) (Schistosoma japonicum). Briefly: cross-linking.

In general, stoichiometry N refers to a count of units in the complex or per binding partner. “Schistosoma japonicum glutathione S-transferase (GST) (enzyme)” registered a stoichiometry N of 2.

Source of the values: PMC2141736.
